Results reported in publication doi:10.1101/2023.05.29.542693 (bioRxiv, 2023).

Assays:
[1] = biological target: Escherichia coli GroEL (wild-type, tetradecamer) (E. coli, UniProt P0A6F5 1-548); assay: cryo-EM structure
cryo-EM structure = biological target: the molecule itself; assay: cryo-EM structure

Sequence of Escherichia coli GroEL (wild-type, tetradecamer) (P0A6F5 whole entry): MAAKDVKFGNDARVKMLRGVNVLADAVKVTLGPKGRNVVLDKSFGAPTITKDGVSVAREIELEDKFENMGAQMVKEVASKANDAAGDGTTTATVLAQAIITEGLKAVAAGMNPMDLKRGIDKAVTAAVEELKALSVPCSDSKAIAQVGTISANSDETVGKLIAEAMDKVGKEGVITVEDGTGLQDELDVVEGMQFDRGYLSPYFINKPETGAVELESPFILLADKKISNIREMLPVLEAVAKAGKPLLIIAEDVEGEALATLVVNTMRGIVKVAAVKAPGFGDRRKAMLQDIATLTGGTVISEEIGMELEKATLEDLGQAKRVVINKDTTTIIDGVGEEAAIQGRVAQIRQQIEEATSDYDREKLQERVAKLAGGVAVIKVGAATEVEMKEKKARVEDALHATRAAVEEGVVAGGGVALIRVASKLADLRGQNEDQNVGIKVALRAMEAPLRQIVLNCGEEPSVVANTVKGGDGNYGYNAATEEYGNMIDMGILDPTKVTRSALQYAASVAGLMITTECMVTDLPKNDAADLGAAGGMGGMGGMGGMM

- binding result [1]: binds
B1: Escherichia coli GroES (heptameric co-chaperonin) (natural protein)
chain: MNIRPLHDRVIVKRKEVETKSAGGIVLTGSAAAKSTRGEVLAVGNGRILENGEVKPLDVKVGDIVIFNDGYGVKSEKIDNEEVLIMSESDILAIVEA
- binding result (cryo-EM structure): binds
